From the supplement of paper PMC9112550, “Optimization of the antimicrobial peptide Bac7 by deep mutational scanning” (BMC Biology, 2022)

System: Escherichia coli TOP10
Experiment: shrunken log2 fold change of peptide-encoding DNA abundance (4.5 h post-induction vs induction); higher = less antimicrobial activity (less host growth inhibition)
Conditions: time post-induction: 4.5 h; library: site-saturation at positions 5, 18, 19, 20
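Note: peptides expressed intracellularly from a pBAD plasmid library in pooled LB shake-flask culture, induced with 0.3% L-arabinose, DNA abundance read by NGS, three biological replicates, DESeq2 with apeglm shrinkage.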

Row | Sequence | shrunken log2 fold change
1 | RRIRQRPPRLPRPRPRPNLKPRP | -0.196
2 | RRIRTRPPRLPRPRPRPKKFPRP | -0.403
3 | RRIRMRPPRLPRPRPRPAIQPRP | -0.00069
4 | RRIRARPPRLPRPRPRPLLVPRP | 0.284
5 | RRIRNRPPRLPRPRPRPPGTPRP | 0.241
6 | RRIRERPPRLPRPRPRPMPCPRP | -0.0207
7 | RRIRFRPPRLPRPRPRPDSTPRP | -0.596
8 | RRIRPRPPRLPRPRPRPEWFPRP | 0.341
9 | RRIRPRPPRLPRPRPRPCDFPRP | -0.179
10 | RRIRSRPPRLPRPRPRPWSFPRP | 0.0324
11 | RRIRCRPPRLPRPRPRPKDMPRP | -0.531
12 | RRIRTRPPRLPRPRPRPLRQPRP | 0.456
13 | RRIRWRPPRLPRPRPRPWSTPRP | 0.374
14 | RRIRIRPPRLPRPRPRPSLFPRP | -0.66
15 | RRIRNRPPRLPRPRPRPSYAPRP | -0.387
16 | RRIRFRPPRLPRPRPRPQSKPRP | 0.379
17 | RRIRRRPPRLPRPRPRPLVKPRP | -0.179
18 | RRIRVRPPRLPRPRPRPFTCPRP | -0.216
19 | RRIRKRPPRLPRPRPRPRQYPRP | 0.0199
20 | RRIRCRPPRLPRPRPRPWGMPRP | -0.16
21 | RRIRNRPPRLPRPRPRPCLCPRP | -0.275
22 | RRIRKRPPRLPRPRPRPSPTPRP | -0.00658
23 | RRIRNRPPRLPRPRPRPLAMPRP | -0.21
24 | RRIRPRPPRLPRPRPRPTPFPRP | 0.269
25 | RRIRQRPPRLPRPRPRPPGSPRP | 0.111

Row | Sequence | shrunken log2 fold change
26 | RRIRARPPRLPRPRPRPPGKPRP | 0.188
27 | RRIRPRPPRLPRPRPRPHKGPRP | 0.0224
28 | RRIRYRPPRLPRPRPRPITCPRP | 0.014
29 | RRIRNRPPRLPRPRPRPDFAPRP | -0.0617
30 | RRIRRRPPRLPRPRPRPNKVPRP | -0.213
31 | RRIRIRPPRLPRPRPRPDFEPRP | -0.39
32 | RRIRVRPPRLPRPRPRPVMKPRP | -0.127
33 | RRIRWRPPRLPRPRPRPLCHPRP | -0.0785
34 | RRIRTRPPRLPRPRPRPKFHPRP | -0.327
35 | RRIRKRPPRLPRPRPRPFPLPRP | 0.289
36 | RRIRKRPPRLPRPRPRPCDAPRP | 0.0682
37 | RRIRTRPPRLPRPRPRPKIHPRP | -0.427
38 | RRIRIRPPRLPRPRPRPRDTPRP | -0.534
39 | RRIRHRPPRLPRPRPRPACCPRP | -0.0888
40 | RRIRGRPPRLPRPRPRPQFVPRP | 0.0536
41 | RRIRHRPPRLPRPRPRPHFTPRP | -0.67
42 | RRIRMRPPRLPRPRPRPQIIPRP | 0.022
43 | RRIRVRPPRLPRPRPRPVQRPRP | 0.167
44 | RRIRHRPPRLPRPRPRPKMYPRP | -0.289
45 | RRIRSRPPRLPRPRPRPLWKPRP | 0.197
46 | RRIRWRPPRLPRPRPRPCCEPRP | -0.00563
47 | RRIRPRPPRLPRPRPRPPGNPRP | 0.105
48 | RRIRARPPRLPRPRPRPMGLPRP | 0.00193
49 | RRIRDRPPRLPRPRPRPHVWPRP | 0.0894
50 | RRIRGRPPRLPRPRPRPHQGPRP | -0.0236
